In data set [1] the test system is human MDM.
The subject of data set [2] is human microglia.
The subject of data set [3] is IDE. Briefly: Immunoblot of MDM lysates, IDE. The class given is cell-based, human. The note with it: cytokines 10 ng/ml each, 120 hrs, vs control. For orientation: A western blot detects proteins with antibodies after separation by electrophoresis.
Data set [4] concerns HSC70. The data set can be described thus: Immunoblot of MDM lysates, HSC70. The following applies: cytokines 10 ng/ml each, 120 hrs, vs control. The class given is cell-based, human.
Data set [5] concerns HSP70. The data set can be described thus: Immunoblot of MDM lysates, HSP70. It is filed as cell-based, human. The following applies: cytokines 10 ng/ml each, 120 hrs, vs control.
Data set [6] has as its system human MDM. Briefly: Pulse-chase of fibrillar 125I-Aβ in MDM chased with recombinant cytokines. It is filed as cell-based. The following applies: cytokines at final 10 ng/ml, chase 120 hrs, vs control MDM.
Data set [7] concerns human microglia. Briefly: Pulse-chase of fibrillar 125I-Aβ in microglia chased with recombinant cytokines. The class given is cell-based. The following applies: cytokines at final 10 ng/ml, chase 120 hrs, vs control.

For the molecule “Fibrillar Aβ40: iodinated synthetic Aβ40 peptide aggregated with stirring at 37°C for 3 days, precipitated fraction”, in data set [1], the “extracellular TCA-soluble fraction (degraded form) at saturation (% total count)” value is recorded as about 40% and the “intracellular retention at saturation (% total count)” value is “approximately 50%”. For the same molecule, in data set [2], the “extracellular TCA-insoluble fraction at saturation (% total count)” value is about 30%, the “extracellular TCA-soluble fraction at saturation (% total count)” value is “approximately 10%” and the “intracellular retention at saturation (% total count)” value is “approximately 60%”.

For “Fibrillar Aβ42: iodinated synthetic Aβ42 peptide aggregated with stirring at 37°C for 3 days, precipitated fraction”, in data set [1], the “extracellular TCA-soluble fraction (degraded form) at saturation (% total count)” value is about 40%. Further, the “intracellular retention at saturation (% total count)” value in data set [2] is about 42%.

In the case of “IFN-γ: recombinant cytokine interferon-γ”, in data set [3], the “reduction of IDE expression (band intensity / β-actin)” value was “no effect”. Further, the “reduction of HSC70 expression (band intensity / β-actin)” value in data set [4] is given as “no effect”. The “reduction of HSP70 expression (band intensity / β-actin)” value in data set [5] is “no effect”.

With “IL-4: recombinant cytokine interleukin-4”, in data set [6], the “effect on intracellular retention of fibrillar Aβ40” value (from here on “effect … of fibrillar Aβ40”) was “significantly reduced” and the “effect on intracellular retention of fibrillar Aβ42” value (shortened to “effect … of fibrillar Aβ42”) is on record as “suppressed”.

For IL-10: recombinant cytokine, in data set [6], the “effect … of fibrillar Aβ40” value is on record as “significantly reduced” and the “effect … of fibrillar Aβ42” value was “suppressed”.

Turning to IL-13: recombinant cytokine, the “effect … of fibrillar Aβ40” value in data set [6] is reported as “no effect”.

For the molecule “Oligomeric Aβ40: 125I-Aβ40 incubated in PBS at 4°C for 24hs, supernatant fraction”, in data set [1], the “extracellular TCA-soluble fraction (degraded form) at saturation (% total count)” value is about 75%.

On to “Oligomeric Aβ42: 125I-Aβ42 incubated in PBS at 4°C for 24hs, supernatant fraction”, for which, in data set [1], the “extracellular TCA-soluble fraction (degraded form) at saturation (% total count)” value was about 40%.

For “TGF-β1: recombinant cytokine transforming growth factor-β1”, the “effect … of fibrillar Aβ40” value in data set [6] is “significantly reduced”.

Consider TNF-α, for which the “reduction of IDE expression (band intensity / β-actin)” value in data set [3] is recorded as “no effect”. The “reduction of HSC70 expression (band intensity / β-actin)” value in data set [4] is given as “no effect”. Moreover, in data set [5], the “reduction of HSP70 expression (band intensity / β-actin)” value is recorded as “no effect”.

B1: IFN-γ: recombinant cytokine interferon-γ (protein, UniProt P01579 24-161, looked up)
Interferon gamma: QDPYVKEAENLKKYFNAGHSDVADNGTLFLGILKNWKEESDRKIMQSQIVSFYFKLFKNFKDDQSIQKSVETIKEDMNVKFFNSNKKKRDDFEKLTNYSVTDLNVQRKAIHELIQVMAELSPAAKTGKRKRSQMLFRG
Consider B1, for which, in data set [6], the “effect … of fibrillar Aβ40” value is listed as “significantly enhanced” and the “effect … of fibrillar Aβ42” value is reported as “significantly enhanced”. In data set [7], the “effect … of fibrillar Aβ40” value is on record as “significantly enhanced” and the “effect … of fibrillar Aβ42” value was “enhanced”.

(Values after paper PMC2603577 (Journal of immunology (Baltimore, Md. : 1950), 2008).)
